According to patent publication US20260210939A1, “MODIFIED OLFACTORY RECEPTORS” (GIVAUDAN SA, priority 2022, published 2026):

Molecular target: T1, OR7C1 (Homo sapiens, UniProt O76099, D296E/G302K/M297V/R299D/T295K/V126I)
T1 construct: Improved functional expression of modified OR-genes containing the truncated, optimized C-terminus; expressed in transfected cells; host or cells: HEK293T stably expressing human RTP1S(V227I) and RTP2(L220R)
T1 sequence (O76099 with tags, fused parts or gaps V126I/T295K/D296E/M297V/R299D/G302K): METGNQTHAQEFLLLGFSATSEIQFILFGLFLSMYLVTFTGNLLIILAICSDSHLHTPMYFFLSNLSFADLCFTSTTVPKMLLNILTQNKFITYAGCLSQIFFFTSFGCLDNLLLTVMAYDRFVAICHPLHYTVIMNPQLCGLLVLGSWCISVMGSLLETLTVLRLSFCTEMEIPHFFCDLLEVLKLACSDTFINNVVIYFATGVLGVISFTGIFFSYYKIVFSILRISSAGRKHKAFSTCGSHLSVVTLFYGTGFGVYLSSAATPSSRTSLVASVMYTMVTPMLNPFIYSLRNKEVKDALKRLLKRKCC
Assay: CRE-luciferase assay, HEK293T cells expressing OR7C1 (wild-type / modified C-terminus)
Assay type: cell-based
Conditions: OR7C1 variant, 1 μM Ambermax
Excerpt: To test for possible variants of the sequence […]CC (SEQ ID NO: 86) leading to similar improved functional expression, different point mutations were introduced into the first 16 amino acids of this sequence (corresponding to […], SEQ ID NO: 10) and the variants were fused after the TM7 with OR7C1. […] The test concentrations were selected to fall into the range of partial activity of the wild-type sequence.

| Substance | % of the activation by the optimized sequence RNKEVKDALKRLLKRKCC |
| --- | --- |
| Ala Ala | 2.1% |
| Ala Glu | 2.1% |
| Arg Arg | 167.7% |
| Arg Gly | 139.9% |
| Arg Lys | 2.0% |
| Arg Phe | 130.8% |
| Arg Pro | 83.9% |
| Arg Tyr | 72.0% |
| Cys Gly | 142.3% |
| Cys Phe | 100.5% |
| Gln Glu | 0.0% |
| Glu Arg | 85.0% |
| Glu Lys | 153.0% |
| Gly Cys | 126.8% |
| Gly Gly | 128.9% |
| Gly Leu | 91.4% |
| His Asp | 1.6% |
| His Pro | 114.6% |
| Ile Ala | 0.0% |
| Lys Ala | 3.5% |
| Phe Arg | 181.7% |
| Phe Phe | 103.8% |
| Pro Ala | 75.6% |

| Substance | % of the activation by the optimized sequence RNKEVKDALKRLLKRKCC |
| --- | --- |
| Pro Arg | 142.3% |
| Pro Gln | 211.8% |
| Pro Gly | 111.9% |
| Pro Pro | 36.2% |
| SEQ ID NO: 87 (RNREVKDALKRLLKRKCC; source 1..18: note = C-terminal domain sequence) | 119.1% |
| SEQ ID NO: 88 (RNKEIKDALKRLLKRKCC; source 1..18: note = C-terminal domain sequence) | 66.5% |
| SEQ ID NO: 89 (RNKEMKDALKRLLKRKCC; source 1..18: note = C-terminal domain sequence) | 76.7% |
| SEQ ID NO: 90 (RNKEVRDALKRLLKRKCC; source 1..18: note = C-terminal domain sequence) | 117.4% |
| SEQ ID NO: 91 (RNKEVKKALKRLLKRKCC; source 1..18: note = C-terminal domain sequence) | 140.8% |
| SEQ ID NO: 92 (RNKEVKEALKRLLKRKCC; source 1..18: note = C-terminal domain sequence) | 81.3% |
| SEQ ID NO: 93 (RNKEVKNALKRLLKRKCC; source 1..18: note = C-terminal domain sequence) | 95.3% |
| SEQ ID NO: 94 (RNKEVKRALKRLLKRKCC; source 1..18: note = C-terminal domain sequence) | 176.6% |
| SEQ ID NO: 95 (RNKEVKVALKRLLKRKCC; source 1..18: note = C-terminal domain sequence) | 122.1% |
| SEQ ID NO: 96 (RNKEVKAALKRLLKRKCC; source 1..18: note = C-terminal domain sequence) | 115.3% |
| SEQ ID NO: 97 (RNKEVKQALKRLLKRKCC; source 1..18: note = C-terminal domain sequence) | 128.4% |
| SEQ ID NO: 98 (RNKEVKDAVKRLLKRKCC; source 1..18: note = C-terminal domain sequence) | 120.1% |
| SEQ ID NO: 99 (RNKEVKDAIKRLLKRKCC; source 1..18: note = C-terminal domain sequence) | 174.6% |
| SEQ ID NO: 100 (RNKEVKDALRRLLKRKCC; source 1..18: note = C-terminal domain sequence) | 86.0% |
| SEQ ID NO: 101 (RNKEVKDALKKLLKRKCC; source 1..18: note = C-terminal domain sequence) | 86.8% |
| SEQ ID NO: 102 (RNKEVKDALKRLIKRKCC; source 1..18: note = C-terminal domain sequence) | 88.6% |
| SEQ ID NO: 103 (RNKEVKDALKRLFKRKCC; source 1..18: note = C-terminal domain sequence) | 207.1% |
| SEQ ID NO: 104 (RNKEVKDALKRLLRRKCC; source 1..18: note = C-terminal domain sequence) | 96.3% |
| SEQ ID NO: 105 (RNKEVKDALKRLLKKKCC; source 1..18: note = C-terminal domain sequence) | 106.7% |

| Substance | % of the activation by the optimized sequence RNKEVKDALKRLLKRKCC |
| --- | --- |
| SEQ ID NO: 106 (RNKEVKDALKRLLKRRCC; source 1..18: note = C-terminal domain sequence) | 104.1% |
| SEQ ID NO: 107 (RNKDVKDALKRLLKRKCC; source 1..18: note = C-terminal domain sequence) | 53.2% |
| SEQ ID NO: 108 (RNKQVKDALKRLLKRKCC; source 1..18: note = C-terminal domain sequence) | 42.0% |
| SEQ ID NO: 109 (RNKELKDALKRLLKRKCC; source 1..18: note = C-terminal domain sequence) | 43.8% |
| SEQ ID NO: 110 (RNKEVKGALKRLLKRKCC; source 1..18: note = C-terminal domain sequence) | 41.6% |
| SEQ ID NO: 111 (RNKEVKDALHRLLKRKCC; source 1..18: note = C-terminal domain sequence) | 44.4% |
| SEQ ID NO: 112 (RNKEVKDALKRILKRKCC; source 1..18: note = C-terminal domain sequence) | 53.2% |
| SEQ ID NO: 113 (RNKEVKDALKRLLGRKCC; source 1..18: note = C-terminal domain sequence) | 63.2% |
| SEQ ID NO: 119 (RNKEVKDALRKLLKRKCC; source 1..18: note = C-terminal domain sequence) | 157.1% |
| SEQ ID NO: 120 (RNKEVKDALKRLLRRRCC; source 1..18: note = C-terminal domain sequence) | 90.4% |
| SEQ ID NO: 123 (RNKEVKRALKRLLKRKRR; source 1..18: note = C-terminal domain sequence) | 312.9% |
| SEQ ID NO: 124 (RNKEVKRALKRLLKRKYP; source 1..18: note = C-terminal domain sequence) | 239.7% |
| SEQ ID NO: 125 (RNKEVKRALKRLLKRKRF; source 1..18: note = C-terminal domain sequence) | 254.2% |
| SEQ ID NO: 126 (RNKEVKRALKRLLKRKFK; source 1..18: note = C-terminal domain sequence) | 280.9% |
| SEQ ID NO: 127 (RNKEVKKALKRLLKRKRR; source 1..18: note = C-terminal domain sequence) | 308.5% |
| SEQ ID NO: 128 (RNKEVKKALKRLLKRKYP; source 1..18: note = C-terminal domain sequence) | 206.9% |
| SEQ ID NO: 129 (RNKEVKKALKRLLKRKRF; source 1..18: note = C-terminal domain sequence) | 294.8% |
| SEQ ID NO: 130 (RNKEVKKALKRLLKRKFK; source 1..18: note = C-terminal domain sequence) | 286.4% |
| SEQ ID NO: 154 (RNKEVKDALKRLLKRKCRRRR; source 1..21: note = C-terminal domain sequence) | 263.5% |
| SEQ ID NO: 157 (RNKEVKDALKRLLKRKCRRRRR; source 1..22: note = C-terminal domain sequence) | 204.3% |
| SEQ ID NO: 158 (RNKEVKDALKRLLKRKCRRRKK; source 1..22: note = C-terminal domain sequence) | 168.8% |
| SEQ ID NO: 186 (KNKEVKDALKRLLKRKCC; source 1..18: note = C-terminal domain sequence) | 26.0% |
| SEQ ID NO: 187 (RTKEVKDALKRLLKRKCC; source 1..18: note = C-terminal domain sequence) | 3.3% |
